We go through 2 molecules from US20030143656A1.

For orientation: Kd means the concentration at which binding is half-saturated. The low end stands for a tighter complex, the high end for a looser complex.

The target of assay [1] is GST-PDK1 I119A (human), O15530. Put plainly: cell-based or functional assay.
Assay [2] deals with 412E-p70 S6K-T2 (His-tagged, insect cells) (human) (UniProt P23443). Put plainly: SPR, His-PDK1 injected over 412E-p70 S6K-T2 amine-coupled to a CM5 chip, steady state.
Sequence of 412E-p70 S6K-T2 (His-tagged, insect cells) (human) (P23443 other isoform, or with tags, fused parts or gaps): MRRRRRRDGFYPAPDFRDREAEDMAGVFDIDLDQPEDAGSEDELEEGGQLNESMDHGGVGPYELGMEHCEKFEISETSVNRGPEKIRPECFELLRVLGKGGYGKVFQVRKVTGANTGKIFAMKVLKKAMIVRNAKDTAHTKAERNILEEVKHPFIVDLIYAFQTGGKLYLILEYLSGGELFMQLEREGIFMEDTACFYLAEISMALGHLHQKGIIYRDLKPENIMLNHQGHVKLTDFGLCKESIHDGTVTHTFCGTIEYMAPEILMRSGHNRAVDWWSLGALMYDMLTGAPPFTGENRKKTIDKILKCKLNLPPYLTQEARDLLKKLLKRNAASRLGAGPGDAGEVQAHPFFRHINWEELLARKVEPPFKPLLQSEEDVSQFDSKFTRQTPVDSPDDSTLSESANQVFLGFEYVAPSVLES

In assay [1], REPRILSEEEQEMFRDFDYIADWC [PIFtide] came in with an inhibition by 2 µM PIFtide of the activation of S6K1-T2[T412E] and SGK1[T422D] by the PDK1 mutant of 50%; an inhibition by 35 µM PIFtide of the activation of S6K1-T2[T412E] and SGK1[T422D] by the PDK1 mutant above 95%; a stimulation of the PDK1 mutant towards T308tide by PIF of 2 fold.

B1: His-PDK1 (enzyme, human, UniProt O15530 52-556, looked up, not shown: small tags and cut ends)
chain: DGTAAEPRPGAGSLQHAQPPPQPRKKRPEDFKFGKILGEGSFSTVVLARELATSREYAIKILEKRHIIKENKVPYVTRERDVMSRLDHPFFVKLYFTFQDDEKLYFGLSYAKNGELLKYIRKIGSFDETCTRFYTAEIVSALEYLHGKGIIHRDLKPENILLNEDMHIQITDFGTAKVLSPESKQARANSFVGTAQYVSPELLTEKSACKSSDLWALGCIIYQLVAGLPPFRAGNEYLIFQKIIKLEYDFPEKFFPKARDLVEKLLVLDATKRLGCEEMEGYGPLKAHPFFESVTWENLHQQTPPKLTAYLPAMSEDDEDCYGNYDNLLSQFGCMQVSSSSSSHSLSASDTGLPQRSGSNIEQYIHDLDSNSFELDLQFSEDEKRLLLEKQAGGNPWHQFVENNLILKMGPVDKRKGLFARRRQLLLTEGPHLYYVDPVNKVLKGEIPWSQELRPEAKNFKTFFVHTPNRTYYLMDPSGNAHKWCRKIQEVWRQRYQSHPDAAVQ
As to B1, the Kd in assay [2] was 8 µM.
